As a reminder, the Kd is the constant that tells how readily two partners part at equilibrium. Low readings indicate a tighter complex, high ones a looser complex. In general, koff refers to a measure of how fast the partners let go of each other. Read a high koff as a short-lived complex. Broadly, the kon is the rate constant with which the complex forms. A low value points to slower complex formation. A word on the IC50: it is the concentration that gives 50% inhibition. A higher IC50 goes with lower potency.

Numbering of substitutions follows the chain as printed.

Assay [1] concerns the target human CXCR4 receptor with a C-terminal linear C9 peptide tag (human). Briefly: SPR (Biacore 2000), C9-tagged CXCR4 captured by 1D4 antibody, antibody injected, 4 °C.
The target of assay [2] is T1, human CXCR4, endogenous on human cells (CCRF-CEM leukemia cells; U937 histiocytic lymphoma cells) (human, UniProt P61073 1-352).
T1 construct: whole, on cells
T1 sequence (P61073 whole entry): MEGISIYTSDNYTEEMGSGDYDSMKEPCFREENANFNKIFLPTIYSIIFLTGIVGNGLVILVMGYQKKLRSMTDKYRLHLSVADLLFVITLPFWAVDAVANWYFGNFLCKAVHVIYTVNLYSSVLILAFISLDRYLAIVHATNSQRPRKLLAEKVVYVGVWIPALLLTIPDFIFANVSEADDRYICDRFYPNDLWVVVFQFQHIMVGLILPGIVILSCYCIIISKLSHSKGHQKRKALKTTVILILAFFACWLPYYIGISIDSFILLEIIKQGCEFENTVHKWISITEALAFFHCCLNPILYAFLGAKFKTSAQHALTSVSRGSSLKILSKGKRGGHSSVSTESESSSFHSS
Briefly: inhibition of 125I-SDF-1α binding to CCRF-CEM cells expressing endogenous CXCR4 (SPA); antibody III's own average value. As to the method:
SDF-1 binding to CXCR4 is the first step in activating the CXCR4 intracellular signaling pathway. To determine if an antibody can block the interaction of SDF-1 and CXCR4, human leukemia CCRF-CEM cells expressing endogenous CXCR4 are used in an ¹²⁵I-labeled SDF-1α binding assay. The assay is performed in a 96-well U-bottom, non-treated polystyrene plate. The binding assay buffer is prepared with RPMI 1640 medium containing 10 mM N-2-hydroxyethylpiperazine-N′-2-ethanesulfonic acid (HEPES), pH 7.5, and 0.2% bovine serum albumin (BSA). Briefly, 200 μL reaction mixtures containing 300 pM ligand (60 pM ¹²⁵I-SDF-1α and 240 pM cold SDF-1α), different concentrations of the test antibody in assay buffer, 100,000 human CCRF-CEM cells, and 0.5 mg scintillation proximity assay (SPA) beads are incubated at room temperature for 2 hours. Plates are then counted in a liquid scintillation and luminescence counter in SPA mode. CXCR4 antagonists decrease the bound radioactivity in this assay in a dose-dependent manner. The inhibitory potency (IC₅₀) of a test antibody is calculated using GraphPad Prism software, based on the dose-dependent decrease of bound radioactivity.

For assay [3], the target named is T1, human CXCR4, endogenous on human cells …. As to the kind of experiment: cell-based or functional assay.

B1: Antibody III (antibody, human IgG4 S228P, kappa, F234A L235A, V domains shown)
VH: EVQLVESGGGLVQPGGSLRLSCAASGFTSTDYYFSWVRQAPGKGLEWVGFIRYKSKGYTTEYSGSVKGRFTISRDDSKNSLYLQMNSLKTEDTAVYYCAREPITTDPRDYWGQGTLVTVSS
VL: DIVMTQSPDSLAVSLGERATINCKSSQSLFNSRTRKKYLAWYQQKPGQPPKLLIYWASKRKSGVPDRFSGSGSGTDFTLTISSLQAEDVAVYYCKQSRFLRAFGQGTKLEIKR
notes: Human engineered anti-CXCR4 antibody; also called the antibody III
In the case of B1, in assay [1], the Kd was 1.54 nM, the dissociation rate constant (koff) was 0.00172 s⁻¹ and the kon was determined as 1.12e+06 M⁻¹ s⁻¹. In assay [2], this molecule gave a half-inhibitory concentration (IC50) of 0.45 nM.

B2: Antibody I (antibody, human IgG4 S228P, kappa, F234A L235A, V domains shown)
VH: B1 VH with Y53T
VL: B1 VL
Consider B2, for which, in assay [3], the “IC50, chemotaxis assay (SDF-1α-driven migration of U937 cells)” value (shortened to “IC50, chemotaxis assay”) is at most 30 nM. In addition, in assay [1], the Kd was 0.68 nM, the dissociation rate constant (koff) was determined as 0.00161 s⁻¹ and the kon came out at 2.36e+06 M⁻¹ s⁻¹.

B3: Antibody IV (antibody, human IgG4 S228P, kappa, F234A L235A, V domains shown)
VH: B1 VH with Y53N, S55R
VL: B1 VL
Regarding B3, the “IC50, chemotaxis assay” value in assay [3] is at most 30 nM. In assay [1], this molecule registered a Kd of 5.14 nM, a koff of 0.00398 s⁻¹ and an association rate constant (kon) of 774000 M⁻¹ s⁻¹.

B4: Antibody II (antibody, human IgG4 S228P, kappa, F234A L235A, V domains shown)
VH: B1 VH with Y53S
VL: B1 VL
With B4, the “IC50, chemotaxis assay” value in assay [3] was at most 30 nM. In assay [1], this molecule displayed a Kd of 0.72 nM, an off-rate constant (koff) of 0.00181 s⁻¹ and an on-rate (kon) of 2.5e+06 M⁻¹ s⁻¹.

B5: Antibody V (antibody, human IgG4 S228P, kappa, F234A L235A, V domains shown)
VH: B1 VH with Y53H
VL: B1 VL
For the molecule B5, the “IC50, chemotaxis assay” value in assay [3] is at most 30 nM. In assay [1], this molecule gave a dissociation constant (Kd) of 0.88 nM, a koff of 0.00168 s⁻¹ and a kon of 1.91e+06 M⁻¹ s⁻¹.

Source of the values: patent US20100285005A1 (Eli Lilly, published 2010).
